Target: T1, recombinant human midkine (MK17) (Homo sapiens, UniProt P21741 23-143)
T1 construct: The signal is left out; It gives a molecular weight of 13.4 kDa; also called human MK; MK17 protein
T1 sequence: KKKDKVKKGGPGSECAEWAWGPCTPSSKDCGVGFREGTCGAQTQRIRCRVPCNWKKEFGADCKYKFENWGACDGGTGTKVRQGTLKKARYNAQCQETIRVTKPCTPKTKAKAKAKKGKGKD
Experiment: SPR (Biacore), antibody amine coupled to CM-4 chip, midkine 0-20 nM as analyte
Description: Antibody IP-13 (2.85 mg/ml) was diluted to 5.7 μg/ml in Biacore acetate pH 4.5 buffer and amine coupled to of flow cell (FC) #3 of a CM-4 chip. Approximately 750 units were aimed to be immobilized onto Flow cells (FC) #3 of the CM-4 chip; and FC#1 was blocked using EDC/NHS followed by ethanolamine and was used as reference during the study.
Recombinant human midkine was diluted to 15 μM (1 μl of 10 mg/ml in 50 μl of HBS-EP buffer, the calculation was based on molecular weight of 13.4 kDa). Various dilutions of human midkine using HBS-EP buffer were prepared (0, 1, 2, 3, 4, 5, 10 and 20 nM).

B1: monoclonal antibody IP-13 (antibody, V domains shown)
VH: EVQLQQSGPELVKPGASVKIPCKASGYTFTDYNMGWVKQSHGKSLEWIGDINPNNGGTIYNQKFKGKATLTVDKSSSTAYMELRSLTSEDTAVYYCARWSYSNPYFDYWGQGTTLTVSS
VL: SIVMTQTPNFLLVSAGDRVTITCKASQSVSNDVSWYQQKPGQSPKLLIYYASNLYTGVPDRFTGSGYGTDFTFTISTVQAEDLAVYFCQQDYSSPWTFGGGTKLEIK
notes: also called mAb IP-13
**Q.** Which Ka does the source give for B1 here?
**A.** Its Ka is 5e+08 M⁻¹.

**Q.** And the Kd?
**A.** Its Kd is 2.02 nM.

**Q.** And the koff?
**A.** The koff was 0.0028 s⁻¹.

**Q.** What about the kon of the same binder?
**A.** Its kon is 1.4e+06 M⁻¹ s⁻¹.
